The values that follow come from IntAct's records for PubMed 15141091.

B1: Homeobox protein SIX1 (Mus musculus), Q62231 (parent)
chain: MSMLPSFGFTQEQVACVCEVLQQGGNLERLGRFLWSLPACDHLHKNESVLKAKAVVAFHRGNFRELYKILESHQFSPHNHPKLQQLWLKAHYVEAEKLRGRPLGAVGKYRVRRKFPLPRTIWDGEETSYCFKEKSRGVLREWYAHNPYPSPREKRELAEATGLTTTQVSNWFKNRRQRDRAAEAKERENTENNNSSSNKQNQLSPLEGGKPLMSSSEEEFSPPQSPDQNSVLLLQSNMGHARSSNYSLPGLTASQPSHGLQAHQHQLQDSLLGPLTSSLVDLGS
partner: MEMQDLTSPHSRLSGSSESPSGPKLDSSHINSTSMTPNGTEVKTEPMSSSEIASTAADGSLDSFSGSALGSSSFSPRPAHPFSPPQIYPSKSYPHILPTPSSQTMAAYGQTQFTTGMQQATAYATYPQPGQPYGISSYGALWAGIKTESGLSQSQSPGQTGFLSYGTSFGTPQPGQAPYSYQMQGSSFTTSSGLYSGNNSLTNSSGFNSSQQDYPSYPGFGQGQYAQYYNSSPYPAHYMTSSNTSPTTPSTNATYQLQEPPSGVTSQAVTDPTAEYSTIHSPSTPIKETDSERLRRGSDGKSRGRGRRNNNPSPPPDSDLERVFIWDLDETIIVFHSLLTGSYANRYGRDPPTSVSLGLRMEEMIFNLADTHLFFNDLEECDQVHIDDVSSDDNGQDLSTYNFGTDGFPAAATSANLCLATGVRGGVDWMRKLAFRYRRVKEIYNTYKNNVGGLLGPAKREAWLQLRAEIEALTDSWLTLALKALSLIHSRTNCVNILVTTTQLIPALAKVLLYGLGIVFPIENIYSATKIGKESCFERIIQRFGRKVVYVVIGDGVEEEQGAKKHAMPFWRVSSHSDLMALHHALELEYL

Variants of B1 are the subject of the assay. The following applies: with eya1_mouse Eya1, P97767.
Take R110W: the “effect of a mutation on the interaction” value is “decreasing interaction”.

With Y129C, the “effect of a mutation on the interaction” value is recorded as “decreasing interaction”.
